Legend:
Experiment in all cases: cell-based or functional assay
[1] = target: Human Interleukin 8 Receptor (hIL8RA), on RBL-2H3 cells with human granzyme A (Sensor A) (human) (UniProt P25024)
[2] = target: T1, human native unmodified procaspase-3 (huCasp3) (human) (UniProt P42574)
T1 sequence (looked up): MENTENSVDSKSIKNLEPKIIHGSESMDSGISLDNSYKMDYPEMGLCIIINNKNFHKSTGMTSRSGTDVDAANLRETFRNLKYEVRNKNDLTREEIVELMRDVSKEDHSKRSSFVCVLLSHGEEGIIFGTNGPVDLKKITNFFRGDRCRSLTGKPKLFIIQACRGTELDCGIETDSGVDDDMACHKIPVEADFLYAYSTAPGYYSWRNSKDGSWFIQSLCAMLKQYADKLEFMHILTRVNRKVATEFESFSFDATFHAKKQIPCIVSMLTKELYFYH

[3] = target: mutated human procaspase-3 (mut-huCasp3), amino acids 172 to 179 changed from IETDSGVD to IEPDVLME (human) (UniProt P42574)
[4] = target: Human Bradykinin Receptor B1 (BDKRB1), c-myc tagged with viral glycosilation sequence, on RBL-2H3 cells (human) (UniProt P46663)
Chain of Human Bradykinin Receptor B1 (BDKRB1), c-myc tagged with viral glycosilation sequence, on RBL-2H3 cells (human) (P46663 other isoform, or with tags, fused parts or gaps): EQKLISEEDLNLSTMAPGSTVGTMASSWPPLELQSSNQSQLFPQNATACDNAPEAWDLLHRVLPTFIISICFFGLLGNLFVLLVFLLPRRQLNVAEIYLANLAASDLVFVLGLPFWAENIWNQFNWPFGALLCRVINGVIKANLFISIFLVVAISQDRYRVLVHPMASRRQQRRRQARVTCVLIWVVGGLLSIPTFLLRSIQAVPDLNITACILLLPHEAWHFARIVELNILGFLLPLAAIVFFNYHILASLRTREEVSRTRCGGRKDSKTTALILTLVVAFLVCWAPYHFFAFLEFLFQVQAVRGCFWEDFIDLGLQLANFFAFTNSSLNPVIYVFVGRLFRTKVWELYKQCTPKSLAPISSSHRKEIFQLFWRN

[5] = target: TNP-BSA conjugate (trinitrophenyl hapten conjugated to bovine serum albumin) (bovine) (UniProt P02769)
[6] = target: Human Somatostain Receptor 2 (SSTR2), c-myc tagged with viral glycosilation sequence, on RBL-2H3 cells (human) (UniProt P30874)
Chain of Human Somatostain Receptor 2 (SSTR2), c-myc tagged with viral glycosilation sequence, on RBL-2H3 cells (human) (P30874 other isoform, or with tags, fused parts or gaps): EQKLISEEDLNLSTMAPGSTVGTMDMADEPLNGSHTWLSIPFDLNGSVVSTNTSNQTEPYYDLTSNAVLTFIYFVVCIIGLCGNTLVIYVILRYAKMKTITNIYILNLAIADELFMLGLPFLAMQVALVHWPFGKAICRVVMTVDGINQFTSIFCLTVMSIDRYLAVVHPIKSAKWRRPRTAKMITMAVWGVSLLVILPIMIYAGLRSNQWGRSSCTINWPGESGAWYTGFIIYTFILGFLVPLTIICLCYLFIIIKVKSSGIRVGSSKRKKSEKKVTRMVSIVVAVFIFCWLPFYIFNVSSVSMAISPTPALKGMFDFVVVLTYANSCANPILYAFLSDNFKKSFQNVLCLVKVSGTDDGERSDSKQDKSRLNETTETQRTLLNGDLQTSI

Chain of Human Interleukin 8 Receptor (hIL8RA), on RBL-2H3 cells with human granzyme A (Sensor A) (human) (P25024 other isoform, or with tags, fused parts or gaps, form in doubt): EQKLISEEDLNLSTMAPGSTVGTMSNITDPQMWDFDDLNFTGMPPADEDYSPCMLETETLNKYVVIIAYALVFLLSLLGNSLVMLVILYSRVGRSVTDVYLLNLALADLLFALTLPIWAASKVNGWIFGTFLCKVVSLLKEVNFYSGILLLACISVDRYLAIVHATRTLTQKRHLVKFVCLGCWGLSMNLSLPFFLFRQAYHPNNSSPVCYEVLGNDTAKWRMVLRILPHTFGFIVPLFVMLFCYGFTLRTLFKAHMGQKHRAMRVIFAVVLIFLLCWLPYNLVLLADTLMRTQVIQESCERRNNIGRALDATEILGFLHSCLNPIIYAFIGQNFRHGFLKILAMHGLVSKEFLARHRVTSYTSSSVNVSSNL
Chain of Human IL8 (P10145 28-99 limits assumed): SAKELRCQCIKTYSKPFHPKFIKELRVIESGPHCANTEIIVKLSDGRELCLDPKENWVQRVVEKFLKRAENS

Work on “Human IL8 (from UniProt P10145 28-99) (ligand)” yielded a Signal to background at 30 min (released granzyme A activity; condition 2: Sensor A alone, IL8 10 uM) [1] of 16 and a Signal to background at 30 min (released granzyme A activity; condition 5: Sensor A mixed with Sensor B, IL8 10 uM and carbachol 10 uM) [1] of 12.5.
For “human granzyme B secreted by stably transfected RBL-2H3 cells (from UniProt P10144 21-247) (enzyme)”, the Signal to Background (S/B), caspase-3 treated with granzyme B against caspase-3 only [2] was 2.8, the Signal to Background (S/B), caspase-3 treated with granzyme B against caspase-3 only [3] was 77 and the signal to background, supernatant equivalent to 5.000 cells, 384 well plate [3] was over 20.
For “kallinin (from UniProt P01042 380-389) (peptide)”, the Absorbance at maximal dilution of ELISA tested (human granzyme B sandwich ELISA of supernatant, dilution 2250, after subtraction of 0.2 blank) [4] was 0.8 absorbance, the Sensitivity (minimal amount of cells needed) [4] was under 150 cells and the exocytosis of granzyme B, percent of maximal at 5 minutes [4] was over 90%. It also gave a signal to background (S/B) of released granzyme B activity, medium taken at 5 to 15 minutes [4] of 20 to 22, a signal to background (S/B) of released granzyme B activity, medium taken at 30 minutes [4] of 15 to 17 and a signal to background (S/B) of released granzyme B activity, medium taken at 60 minutes [4] of 8 to 10.
“mouse IgE monoclonal antibody against trinitrophenyl hapten from IgELb4 hybridoma (ATCC TIB-141)” showed a Fluorescence after 30 minutes at 37 C (released granzyme B, FRET substrate), TNP-BSA 1 pg/mL [5] of 35900 fluorescence, a Fluorescence after 30 minutes at 37 C (released granzyme B, FRET substrate), TNP-BSA 1 ng/mL [5] of 34600 fluorescence and a Fluorescence after 30 minutes at 37 C (released granzyme B, FRET substrate), TNP-BSA 1 ug/mL [5] of 30900 fluorescence. The Fluorescence after 30 minutes at 37 C (released granzyme B, FRET substrate), TNP-BSA 1 fg/mL [5] was 29800 fluorescence and the limit of detection for TNP-BSA [5] was 0.1 ag/mL.
seglitide (peptide) gave an Absorbance at maximal dilution of ELISA tested (human granzyme B sandwich ELISA of supernatant, dilution 2250, after subtraction of 0.2 blank) [6] of 2.4 absorbance and a Sensitivity (minimal amount of cells needed) [6] of under 150 cells.

Source: US20130203078A1
